This note sets out measurements from paper PMC12645435, “Improved Nucleoside (2′-Deoxy)Ribosyltransferases Maximize Enzyme Promiscuity while Maintaining Catalytic Efficiency” (ACS Chemical Biology, 2025).

Data set [1] has as its target T1, CtNDT (Chroococcidiopsis thermalis, UniProt K9TVX3, A9S).
T1 construct: gene Chro_1188; homotetramer; residues 111 and 118 of the neighbouring subunit complete the site; expression host and tags only in supplement
The experiment in a line: HPLC initial rates, Michaelis-Menten. Particulars: adenine as nucleobase acceptor. The format is biochemical.

Data set [2] addresses T2, CtNDT (Chroococcidiopsis thermalis, UniProt K9TVX3, V85S).
T2 construct: gene Chro_1188; homotetramer; residues 111 and 118 of the neighbouring subunit complete the site; expression host and tags only in supplement
The experiment in a line: HPLC initial rates, Michaelis-Menten. Particulars: adenine as nucleobase acceptor. Format: biochemical.

The target in data set [3] is T3, CtNDT (Chroococcidiopsis thermalis, UniProt K9TVX3, Y7F/A9S).
T3 construct: gene Chro_1188; homotetramer; residues 111 and 118 of the neighbouring subunit complete the site; expression host and tags only in supplement
In words: X-ray crystal structure. The conditions noted are these: active site, ribosyl-binding pocket.

The target in data set [4] is T4, CtNDT (Chroococcidiopsis thermalis, UniProt K9TVX3, Y7F).
T4 construct: gene Chro_1188; homotetramer; residues 111 and 118 of the neighbouring subunit complete the site; expression host and tags only in supplement
In words: X-ray crystal structure. The format is binding. Particulars: active site; ligand placed in 2 of 4 protomers, less defined density.

Data set [5] addresses T5, CtNDT (Chroococcidiopsis thermalis, UniProt K9TVX3, A9S/Y7F).
T5 construct: gene Chro_1188; homotetramer; residues 111 and 118 of the neighbouring subunit complete the site; expression host and tags only in supplement
In words: binding assay (details in supplement).

The target of data set [6] is T6, CtNDT (Chroococcidiopsis thermalis, UniProt K9TVX3).
T6 construct: gene Chro_1188; homotetramer; residues 111 and 118 of the neighbouring subunit complete the site; expression host and tags only in supplement
In words: steady-state kinetics (details in supplement). The conditions noted are these: nucleobase acceptor; kcat/KM only said to be similar. Format: biochemical.

Substrate in data set [7]: OC[C@H]1O[C@@H](n2cnc3c(O)ncnc32)[C@H](O)[C@@H]1O
The experiment in a line: HPLC initial rates, Michaelis-Menten. The format is biochemical, Chroococcidiopsis thermalis. Particulars: adenine as nucleobase acceptor.

Substrate in data set [8]: OC[C@H]1O[C@@H](n2cnc3c(O)ncnc32)[C@H](O)[C@@H]1O
In words: HPLC initial rates, Michaelis-Menten. Format: biochemical, Chroococcidiopsis thermalis. Particulars: adenine as nucleobase acceptor. An excerpt:
HPLC initial rates, Michaelis-Menten on CtNDT | evaluated with inosine as the sugar donor and adenine as the […]
This is another data set of the same source.

Numbering of substitutions follows the chain as printed. Names and notes keep the numbering of the source.

T6 sequence (K9TVX3 entry or part of it): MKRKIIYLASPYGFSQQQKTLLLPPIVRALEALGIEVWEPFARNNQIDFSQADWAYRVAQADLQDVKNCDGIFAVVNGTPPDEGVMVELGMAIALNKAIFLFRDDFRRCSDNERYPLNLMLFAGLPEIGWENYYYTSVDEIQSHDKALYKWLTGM
T1 sequence (K9TVX3 entry or part of it A9S): as the sequence (K9TVX3 entry or part of it) above, with A9S counted along it
T4 sequence (K9TVX3 entry or part of it Y7F): as the sequence (K9TVX3 entry or part of it) above, with Y7F counted along it
T3 sequence (K9TVX3 entry or part of it Y7F/A9S): as the sequence (K9TVX3 entry or part of it) above, with Y7F, A9S counted along it
T5 sequence (K9TVX3 entry or part of it Y7F/A9S): as the sequence (K9TVX3 entry or part of it) above, with Y7F, A9S counted along it
T2 sequence (K9TVX3 entry or part of it V85S): as the sequence (K9TVX3 entry or part of it) above, with V85S counted along it

As to `O=c1[nH]cnc2c1ncn2[C@@H]1O[C@H](CO)[C@@H](O)[C@H]1O` [inosine], the “K M-inosine” value in data set [1] and in data set [2] was “These mutants had modest changes in K M‑inosine” in each case. Regarding `Nc1ncnc2c1ncn2[C@@H]1O[C@H](CO)C[C@H]1O` [cordycepin], in data set [3], the X-ray crystal structure is on record as 9EMXCtNDTY7F‑A9S bound to Cordycepin. For orientation: Kd means a measure of binding affinity in units of concentration. Low readings indicate tighter binding, high ones weaker binding. On to `O=c1[nH]cnc2c([C@@H]3N[C@H](CO)[C@@H](O)[C@H]3O)c[nH]c12` [Immucillin-H], for which the X-ray crystal structure in data set [4] is given as 9EMWCtNDTY7F bound to ImmH. For the same molecule, in data set [5], the Kd is 590 µM.

With `O=c1[nH]cnc2nc[nH]c12` [hypoxanthine], the “k cat/K M” value in data set [6] is “uric acid, xanthine, and hypoxanthine, which have similar k cat/K M values”. Regarding `O=c1[nH]c(=O)c2[nH]cnc2[nH]1` [xanthine], in data set [6], the “k cat/K M” value is “uric acid, xanthine, and hypoxanthine, which have similar k cat/K M values”.

B1: CtNDT (Chroococcidiopsis thermalis PCC 7203; Y7A) (protein)
chain: MKRKIIALASPYGFSQQQKTLLLPPIVRALEALGIEVWEPFARNNQIDFSQADWAYRVAQADLQDVKNCDGIFAVVNGTPPDEGVMVELGMAIALNKAIFLFRDDFRRCSDNERYPLNLMLFAGLPEIGWENYYYTSVDEIQSHDKALYKWLTGM
notes: homotetramer; residues 111 and 118 of the neighbouring subunit complete the site; expression host and tags only in supplement
One may read the Km as the concentration of substrate that gives half-maximal velocity. What is called kcat is the number of substrate molecules converted per active site and unit of time at saturation. B1: in data set [7], the Km worked out at 530 ± 10 µM and the turnover number (kcat) was 0.02 ± 0.01 s⁻¹.

B2: CtNDT (Chroococcidiopsis thermalis PCC 7203) (protein)
chain: B1 chain with A7Y
notes: as for B1
Turning to B2, in data set [8], the Km was 920 ± 240 µM and the kcat was determined as 0.01 ± 0.01 s⁻¹.

B3: CtNDT (Chroococcidiopsis thermalis PCC 7203; A9S/Y7F) (protein)
chain: B1 chain with A7F, A9S
notes: as for B1
In the case of B3, the Km in data set [7] came out at 620 µM.

B4: CtNDT (Chroococcidiopsis thermalis PCC 7203; D62N) (protein)
chain: B1 chain with A7Y, D62N
notes: as for B1
Turning to B4, in data set [7], the Michaelis-Menten constant (Km) came to 800 ± 90 µM and the kcat was 0.002 ± 0.001 s⁻¹.

B5: CtNDT (Chroococcidiopsis thermalis PCC 7203; Y7F) (protein)
chain: B1 chain with A7F
notes: as for B1
In the case of B5, in data set [7], the Michaelis-Menten constant (Km) stood at 710 ± 170 µM and the turnover number (kcat) stood at 0.03 ± 0.01 s⁻¹.
